{"source": "patent US20250387450A1", "about": "(AIKIUM, published 2025)", "binders": {"B1": {"name": "engineered scaffold protein S177 (designed binder)", "chain": "MIKEEHVINQAEYYLNPDQSGEFKFDFDGDEIFHVDMAKKETVWRLEEFGRFASFEAQGALAHIAVDKANLEIMTKRSNYTPMGDTRPRFLWQLKYECHFFNGTERVRLNERCIYNQEESVRFDSDVGEYRAVTELGRPDAEQWNSQKDHLEQRRAAVDTKCRHNYGVGESFTVQGGSHHHHHHLE"}, "B2": {"name": "engineered scaffold protein S194 (designed binder)", "chain": "MGIKEEHVINQAEYYLNPDQSGEFKFDFDGDEIFHVDMAKKETVWRLEEFGRFASFEAQGALAHIAVDKANLEIMTKRSNYTPMGGGSKARMATGALAQAGGSGGSGDTRPRFLWQLKYECHFFNGTERVRLNERCIYNQEESVRFDSDVGEYRAVTELGRPDAEQWNSQKDHLEQRRAAVDTKCRHNYGVGESFTVQGGSHHHHHH"}, "B3": {"name": "engineered scaffold protein S164 (designed binder)", "chain": "GIKEEHSIRQNEKYNNPDQSGNFEFHLDGQPIFRVDMQKKRTKWQLEEFGRFASFEAQGALANIAVFKINLEIMTKRSNQSEAGSHSWQLNFTCEFHEGTESVRLSERSYYNQENFVSFNSDVGEYRATTELGRPMAEYVNSQKDTLEQRRAAVDTYCRHNYGVGEYFTVQRR"}, "B4": {"name": "engineered scaffold protein S171 (designed binder)", "chain": "GDTRPRFLWQLKWECHFYNGTERVRLNERCNYNQEESVRFDSDVGEYRAVTELGRPDAEFSNSQKDNLEQRRAAVDTLCRHNYGVGESFTVQRRSGGGIKEEHVINQAEYYLNPDQSGEFKFDFDGDEIFHVDMAKKETVWRLEEFGRFAIIEAYGALANIAVDKANLEIMTKQSNYT"}, "B5": {"name": "engineered scaffold protein S055 (designed binder)", "chain": "GSHSMRYNYTSVSRPGRGEPRFLSEGHVDDTQFVRFDSDAASPREEPRAPWIEQEGPEYWDRNTQIYKAQAQTDRESLRNLRGYYNQSEAGSHTLQSIYGCDVGPDGRLLRGHDQYYYDGKDYISLNEDLRSWTAADTAAQITQRKWEAAREAEQRRAYLEGECVEWLRRYLENGKDKLERADGGSHHHHHHLE"}, "B6": {"name": "engineered scaffold protein S056 (designed binder)", "chain": "B5 chain with D30G, T31Q, Q32P, S92L, T94S, Q96N, G100V, Q115H, K121E, D122L"}}, "key": {"[1]": {"target": "T1, MERKFMSLQPSISVSEMEPNG (N-terminal biotin)", "T1 construct": "also called CYSLTR2 N-terminal 21-mer peptide", "T1 peptide": "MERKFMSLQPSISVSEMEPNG", "experiment": "ELISA: scaffold coated on plate, N-terminally biotinylated peptide titrated, streptavidin-HRP fluorescence", "method": "(§1) Binder proteins were coated on the surface of a high binding capacity 96 well plate by incubating 100 μL of protein at 5 μg/mL in a coating solution (10 mM Tris pH 8.8, 50 mM NaCl), overnight at 4 C. The next morning, the coating solution was aspirated out and wells were washed once with 300 μL ELISA wash buffer (1×PBS, 0.05% Tween-20) and solution was aspirated out. The wells were blocked with 200 μL of a blocking buffer (1×PBS, 0.05% Tween-20, 3% BSA) at room temperature for 1 hour. After one hour, the blocking solution was aspirated out and 100 μL of biotinylated polypeptide in a binding buffer (1×PBS, 0.05% Tween-20, 0.5% BSA) at various concentrations was added to the appropriate well and incubated for 20 minutes. Peptide solution was aspirated out after 20 minutes and wells were washed 5 times with 300 μL of ELISA wash buffer. To detect the biotinylated peptide, 100 μL of streptavidin-HRP (50 ng/ml) was added to each well and incubated for 1 hour. The wells were subsequently washed 5 times with 300 μL of ELISA wash buffer. 100 μL of QuantaBlu Fluorogenic Peroxidase substrate solution was added to each well, incubated for 30 minutes and reaction stopped by adding 100 μL of stop solution. Fluorescent signal from each well was measured using a Biotek Cytation5 plate reader by exciting the fluorophore at […] and measuring emission at 420 nm. Fluorescent signals were plotted as a function of polypeptide concentration."}, "[2]": {"target": "T2, CYSLTR2 short linear epitope peptide, SISVSEMEPNGTFSNNNSRNC (N-terminal biotin)", "T2 peptide": "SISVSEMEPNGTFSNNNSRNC", "experiment": "ELISA: scaffold coated on plate, N-terminally biotinylated peptide titrated, streptavidin-HRP fluorescence", "method": "as §1"}, "[3]": {"target": "T3, KAAG1 disordered region peptide, PGAAAAHLPRWPPPQLAASRREA (biotin label)", "T3 construct": "also called KAAG1 Peptide", "T3 peptide": "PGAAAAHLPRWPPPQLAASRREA", "experiment": "ELISA: scaffold coated on plate, biotinylated peptide titrated, streptavidin-HRP fluorescence", "method": "as §1"}, "[4]": {"target": "T4, TNFRSF13B disordered region peptide, LPPELRRQRSGEVENNSDNSGRYQ (biotin label)", "T4 construct": "also called TNFRSF13B Peptide", "T4 peptide": "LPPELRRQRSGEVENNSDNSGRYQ", "experiment": "ELISA: scaffold coated on plate, biotinylated peptide titrated, streptavidin-HRP fluorescence", "method": "as §1"}, "[5]": {"target": "T5, KCNA6 short linear epitope peptide, QQQEQQPASGGGGQNGQQAMS (biotin label)", "T5 construct": "also called KCNA6 Peptide", "T5 peptide": "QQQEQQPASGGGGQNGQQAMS", "experiment": "ELISA: scaffold coated on plate, biotinylated peptide titrated, streptavidin-HRP fluorescence", "method": "as §1"}, "[6]": {"target": "T6, GMERKFMSLQPSISVSEMEPNGTFSNNNSRNCTIENFKREFFP (biotinylated, position not given)", "T6 construct": "also called CYSLTR2 (longer peptide of the disordered region)", "T6 peptide": "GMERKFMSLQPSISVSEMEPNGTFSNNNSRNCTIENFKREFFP", "experiment": "ELISA: scaffold coated on plate, biotinylated peptide titrated, streptavidin-HRP fluorescence", "method": "as §1"}, "[7]": {"target": "T7, CD40LG short linear epitope peptide, NKEETKKENSFEMQKGDQNPQIAAH (biotin label)", "T7 construct": "also called CD40LG Peptide", "T7 peptide": "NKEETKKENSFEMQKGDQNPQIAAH", "experiment": "ELISA: scaffold coated on plate, biotinylated peptide titrated, streptavidin-HRP fluorescence", "method": "as §1"}, "[8]": {"target": "T8, CYSLTR2 N-terminal disordered region peptide, MERKFMSLQPSISVSEMEPNGTFSNNNSRNCTIENFKREFFP (biotin label)", "T8 construct": "also called CysLT2; CysLT2r", "T8 peptide": "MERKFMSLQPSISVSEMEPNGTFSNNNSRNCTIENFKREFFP", "experiment": "modified sandwich ELISA, fluorescence grade by the table's key", "method": "as §1"}, "[9]": {"target": "T2, CYSLTR2 short linear epitope peptide, …", "experiment": "ELISA: scaffold coated on plate, biotinylated peptide titrated, streptavidin-HRP fluorescence", "method": "as §1"}, "[10]": {"target": "T8, CYSLTR2 N-terminal disordered region …", "experiment": "ELISA: scaffold coated on plate, biotinylated peptide titrated, streptavidin-HRP fluorescence", "method": "as §1"}, "[11]": {"target": "T9, CD74 disordered region peptide (CLIP), PPKPVSKMRMATPLLMQALPMGALP (biotin label)", "T9 construct": "also called CD74 Peptide", "T9 peptide": "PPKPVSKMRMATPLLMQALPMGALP", "experiment": "modified sandwich ELISA, fluorescence grade by the table's key", "method": "as §1"}, "[12]": {"target": "T3, KAAG1 disordered region peptide, …", "experiment": "modified sandwich ELISA, fluorescence grade by the table's key", "method": "as §1"}}, "note": "Positions count from the first letter of the chain named."}
{"binder": "B1", "values": [{"measurement": "binding result", "setting": "[1]", "result": "no binding (tested: 10000 nM)"}, {"measurement": "binding result", "setting": "[2]", "result": "binds"}, {"measurement": "binding result", "setting": "[3]", "result": "no binding (tested: 10000 nM)"}, {"measurement": "binding result", "setting": "[4]", "result": "no binding (tested: 10000 nM)"}, {"measurement": "binding result", "setting": "[5]", "result": "no binding (tested: 10000 nM)"}, {"measurement": "binding result", "setting": "[6]", "result": "binds"}, {"measurement": "binding result", "setting": "[7]", "result": "no binding (tested: 10000 nM)"}, {"measurement": "fluorescent signal", "setting": "[8]", "result": "100000 to 250000", "unit": "fluorescentsignal"}]}
{"binder": "B2", "values": [{"measurement": "binding result", "setting": "[3]", "result": "no binding (tested: 10000 nM)"}, {"measurement": "binding result", "setting": "[4]", "result": "no binding (tested: 10000 nM)"}, {"measurement": "binding result", "setting": "[5]", "result": "no binding (tested: 10000 nM)"}, {"measurement": "binding result", "setting": "[6]", "result": "binds"}, {"measurement": "binding result", "setting": "[9]", "result": "binds"}, {"measurement": "binding result", "setting": "[7]", "result": "no binding (tested: 10000 nM)"}]}
{"binder": "B3", "values": [{"measurement": "binding result", "setting": "[3]", "result": "no binding (tested: 10000 nM)"}, {"measurement": "binding result", "setting": "[10]", "result": "no binding (tested: 10000 nM)"}, {"measurement": "fluorescent signal", "setting": "[11]", "result": "> 400000", "unit": "fluorescentsignal"}]}
{"binder": "B4", "values": [{"measurement": "binding result", "setting": "[3]", "result": "no binding (tested: 10000 nM)"}, {"measurement": "binding result", "setting": "[10]", "result": "no binding (tested: 10000 nM)"}, {"measurement": "fluorescent signal", "setting": "[11]", "result": "> 400000", "unit": "fluorescentsignal"}]}
{"binder": "B5", "values": [{"measurement": "fluorescent signal", "setting": "[12]", "result": "50000 to 100000", "unit": "fluorescentsignal"}, {"measurement": "fluorescent signal", "setting": "[11]", "result": "> 400000", "unit": "fluorescentsignal"}]}
{"binder": "B6", "values": [{"measurement": "fluorescent signal", "setting": "[12]", "result": "50000 to 100000", "unit": "fluorescentsignal"}, {"measurement": "fluorescent signal", "setting": "[11]", "result": "> 400000", "unit": "fluorescentsignal"}]}
